Measured values taken from patent US9260500B2, “Peptide and use thereof” (Takeda Pharmaceutical Company Limited, priority 2009, dated 2016).
Starred links: 1 amine or outer side, 2 acyl side, 3 side chain; linkers in the order of their positions; H or OH if unused. Non-standard residues stand in square brackets, D forms with d. Primed or numbered codes have the meaning given here. *: point of attachment. Tyr(Me) = O-methyltyrosine, COc1ccc(C[C@H](N[*:1])C(=O)[*:2])cc1; Asn(Me)″ = Nω-methylasparagine, CNC(=O)C[C@H](N[*:1])C(=O)[*:2]; Phe(4-NH2) = Nc1ccc(C[C@H](N)C(=O)O)cc1; Cyclohexanecarbonyl = O=C(C1CCCCC1)*; 4Pal = N[C@@H](Cc1ccncc1)C(=O)O; Cha = N[C@@H](CC1CCCCC1)C(=O)O; Isonicotinoyl = O=C(c1ccncc1)*; dIva = CC[C@@](C)(N)C(=O)O; hSer = N[C@@H](CCO)C(=O)O; Isobutyryl = CC(C)C(=O)*; Iva = CC[C@](C)(N)C(=O)O; Nle = CCCC[C@H](N)C(=O)O; Abu = CC[C@H](N)C(=O)O; Aib = CC(C)(N)C(=O)O; Bz = O=C(c1ccccc1)*

What was measured:
human Y2 receptor [1] = target: T1, human Y2 receptor (Homo sapiens, UniProt P49146); assay: Receptor Binding Assay (RBA) for Human Y2, [125I]-PYY displacement on hY2R/CHO membrane fraction; settings: IC50 of test compound/IC50 of PYY(3-36) (PYY(3-36) taken as 1)
T1 construct: expressed in transfected cells; membrane fraction
T1 sequence (P49146 1-381): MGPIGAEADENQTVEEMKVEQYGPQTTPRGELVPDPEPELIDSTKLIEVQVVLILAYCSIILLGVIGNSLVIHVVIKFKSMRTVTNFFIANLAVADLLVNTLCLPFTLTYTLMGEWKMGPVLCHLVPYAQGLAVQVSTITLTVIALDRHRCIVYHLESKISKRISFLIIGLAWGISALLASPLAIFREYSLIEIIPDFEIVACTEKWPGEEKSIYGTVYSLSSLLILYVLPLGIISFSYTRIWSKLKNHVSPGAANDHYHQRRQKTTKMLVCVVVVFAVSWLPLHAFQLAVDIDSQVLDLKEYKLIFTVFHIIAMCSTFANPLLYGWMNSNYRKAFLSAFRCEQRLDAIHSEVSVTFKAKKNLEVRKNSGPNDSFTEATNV
In short: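 hY2R stably expressed in CHO/dhfr− cells; membrane fraction prepared from cells disrupted in 10 mM NaHCO3, 5 mM EDTA buffer with protease inhibitors. Binding read as displacement of [125I]-PYY.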

human Y2 receptor [2] = target: T1, human Y2 receptor; assay: Human Y2 Receptor G Protein Binding Assay (GBA), [35S]GTPγS; type: biochemical; settings: EC50 of test compound/EC50 of PYY(3-36) (PYY3-36 taken as 1), hY2R/CHO membrane fraction
In short: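 Agonism measured as [35S]GTPγS binding, read by GF/C filtration and scintillation counting after 120 min at room temperature, using human Y2 membranes at 1 μg protein/mL in pH 7.4 Tris/MgCl2/NaCl/GDP buffer. Compound serially diluted 100 μM–1 nM; EC50 normalized to PYY(3-36) (ratio = compound/PYY).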

Row | Substance | RBA IC50 Ratio (human Y2 receptor [1]) | GBA EC50 Ratio (human Y2 receptor [2])
1 | Ac-[D-Pro24, Tyr(Me)26, Cha27,36, Aib28,31, Lys30]-PYY(23-36) (Ac-S[dP]R[Tyr(Me)][Cha][Aib]NK[Aib]TRQR[Cha]-NH2; SMILES COc1ccc(C[C@H](NC(=O)[C@H](CCCNC(=N)N)NC(=O)[C@H]2CCCN2C(=O)[C@H](CO)NC(C)=O)C(=O)N[C@@H](CC2CCCCC2)C(=O)NC(C)(C)C(=O)N[C@@H](CC(N)=O)C(=O)N[C@@H](CCCCN)C(=O)NC(C)(C)C(=O)N[C@H](C(=O)N[C@@H](CCCNC(=N)N)C(=O)N[C@@H](CCC(N)=O)C(=O)N[C@@H](CCCNC(=N)N)C(=O)N[C@@H](CC2CCCCC2)C(N)=O)[C@@H](C)O)cc1) [compound No. 348] | 0.88 | 1.4
2 | Cyclohexanecarbonyl-[Cha27,36, Ile28,31, Asn(Me)29]-PYY(25-36) (Cyclohexanecarbonyl-RH[Cha]I[Asn(Me)″]LITRQR[Cha]-NH2; SMILES CC[C@H](C)[C@H](NC(=O)[C@H](CC1CCCCC1)NC(=O)[C@H](Cc1c[nH]cn1)NC(=O)[C@H](CCCNC(=N)N)NC(=O)C1CCCCC1)C(=O)N[C@@H](CC(=O)NC)C(=O)N[C@@H](CC(C)C)C(=O)N[C@H](C(=O)N[C@H](C(=O)N[C@@H](CCCNC(=N)N)C(=O)N[C@@H](CCC(N)=O)C(=O)N[C@@H](CCCNC(=N)N)C(=O)N[C@@H](CC1CCCCC1)C(N)=O)[C@@H](C)O)[C@@H](C)CC) [compound No. 75] | 76 | 37
3 | Ac-[D-Pro24, Iva25, Cha27,36, Aib28,31, Lys30]-PYY(23-36) (Ac-S[dP][Iva]H[Cha][Aib]NK[Aib]TRQR[Cha]-NH2; SMILES CC[C@](C)(NC(=O)[C@H]1CCCN1C(=O)[C@H](CO)NC(C)=O)C(=O)N[C@@H](Cc1c[nH]cn1)C(=O)N[C@@H](CC1CCCCC1)C(=O)NC(C)(C)C(=O)N[C@@H](CC(N)=O)C(=O)N[C@@H](CCCCN)C(=O)NC(C)(C)C(=O)N[C@H](C(=O)N[C@@H](CCCNC(=N)N)C(=O)N[C@@H](CCC(N)=O)C(=O)N[C@@H](CCCNC(=N)N)C(=O)N[C@@H](CC1CCCCC1)C(N)=O)[C@@H](C)O) [compound No. 239] | 8.8 | 5.2
4 | Benzoyl-[Cha27,36, Ile28, Phe(4NH2)31]-PYY(25-36) (Bz-RH[Cha]INL[Phe(4-NH2)]TRQR[Cha]-NH2; SMILES CC[C@H](C)[C@H](NC(=O)[C@H](CC1CCCCC1)NC(=O)[C@H](Cc1c[nH]cn1)NC(=O)[C@H](CCCNC(=N)N)NC(=O)c1ccccc1)C(=O)N[C@@H](CC(N)=O)C(=O)N[C@@H](CC(C)C)C(=O)N[C@@H](Cc1ccc(N)cc1)C(=O)N[C@H](C(=O)N[C@@H](CCCNC(=N)N)C(=O)N[C@@H](CCC(N)=O)C(=O)N[C@@H](CCCNC(=N)N)C(=O)N[C@@H](CC1CCCCC1)C(N)=O)[C@@H](C)O) [compound No. 72] | 5.0 | 5.4
5 | Isobutanoyl-[Abu26, Cha27,28,36, Ser30, Aib31]-PYY(25-36) (Isobutyryl-R[Abu][Cha][Cha]NS[Aib]TRQR[Cha]-NH2; SMILES CC[C@H](NC(=O)[C@H](CCCNC(=N)N)NC(=O)C(C)C)C(=O)N[C@@H](CC1CCCCC1)C(=O)N[C@@H](CC1CCCCC1)C(=O)N[C@@H](CC(N)=O)C(=O)N[C@@H](CO)C(=O)NC(C)(C)C(=O)N[C@H](C(=O)N[C@@H](CCCNC(=N)N)C(=O)N[C@@H](CCC(N)=O)C(=O)N[C@@H](CCCNC(=N)N)C(=O)N[C@@H](CC1CCCCC1)C(N)=O)[C@@H](C)O) [compound No. 89] | 26 | 28
6 | Ac-[D-Pro24, Pya(4)26, Cha27,36, Aib28,31, Lys30]-PYY(24-36) (Ac-[dP]R[4Pal][Cha][Aib]NK[Aib]TRQR[Cha]-NH2; SMILES CC(=O)N1CCC[C@@H]1C(=O)N[C@@H](CCCNC(=N)N)C(=O)N[C@@H](Cc1ccncc1)C(=O)N[C@@H](CC1CCCCC1)C(=O)NC(C)(C)C(=O)N[C@@H](CC(N)=O)C(=O)N[C@@H](CCCCN)C(=O)NC(C)(C)C(=O)N[C@H](C(=O)N[C@@H](CCCNC(=N)N)C(=O)N[C@@H](CCC(N)=O)C(=O)N[C@@H](CCCNC(=N)N)C(=O)N[C@@H](CC1CCCCC1)C(N)=O)[C@@H](C)O) [compound No. 251] | 0.68 | 0.56
7 | Ac-[Iva23, D-Pro24, Cha27,28,36, Aib31]-PYY(23-36) (Ac-[Iva][dP]RH[Cha][Cha]NL[Aib]TRQR[Cha]-NH2; SMILES CC[C@](C)(NC(C)=O)C(=O)N1CCC[C@@H]1C(=O)N[C@@H](CCCNC(=N)N)C(=O)N[C@@H](Cc1c[nH]cn1)C(=O)N[C@@H](CC1CCCCC1)C(=O)N[C@@H](CC1CCCCC1)C(=O)N[C@@H](CC(N)=O)C(=O)N[C@@H](CC(C)C)C(=O)NC(C)(C)C(=O)N[C@H](C(=O)N[C@@H](CCCNC(=N)N)C(=O)N[C@@H](CCC(N)=O)C(=O)N[C@@H](CCCNC(=N)N)C(=O)N[C@@H](CC1CCCCC1)C(N)=O)[C@@H](C)O) [compound No. 178] | 13 | 17
8 | 4-Pyridinecarbonyl-[Glu23, D-Pro24, Nle25, Pya(4)26, Cha27,36, Aib28,31, Lys30]-PYY(23-36) (Isonicotinoyl-E[dP][Nle][4Pal][Cha][Aib]NK[Aib]TRQR[Cha]-NH2; SMILES CCCC[C@H](NC(=O)[C@H]1CCCN1C(=O)[C@H](CCC(=O)O)NC(=O)c1ccncc1)C(=O)N[C@@H](Cc1ccncc1)C(=O)N[C@@H](CC1CCCCC1)C(=O)NC(C)(C)C(=O)N[C@@H](CC(N)=O)C(=O)N[C@@H](CCCCN)C(=O)NC(C)(C)C(=O)N[C@H](C(=O)N[C@@H](CCCNC(=N)N)C(=O)N[C@@H](CCC(N)=O)C(=O)N[C@@H](CCCNC(=N)N)C(=O)N[C@@H](CC1CCCCC1)C(N)=O)[C@@H](C)O) [compound No. 228] | 8.1 | 5.7
9 | Ac-[D-Pro24, Hse26, Cha27,36, Aib28,31]-PYY(23-36) (Ac-S[dP]R[hSer][Cha][Aib]NL[Aib]TRQR[Cha]-NH2; SMILES CC(=O)N[C@@H](CO)C(=O)N1CCC[C@@H]1C(=O)N[C@@H](CCCNC(=N)N)C(=O)N[C@@H](CCO)C(=O)N[C@@H](CC1CCCCC1)C(=O)NC(C)(C)C(=O)N[C@@H](CC(N)=O)C(=O)N[C@@H](CC(C)C)C(=O)NC(C)(C)C(=O)N[C@H](C(=O)N[C@@H](CCCNC(=N)N)C(=O)N[C@@H](CCC(N)=O)C(=O)N[C@@H](CCCNC(=N)N)C(=O)N[C@@H](CC1CCCCC1)C(N)=O)[C@@H](C)O) [compound No. 128] | 11 | 5.4
10 | Ac-[D-Pro24, D-Iva26, Cha27,28,36, Aib31]-PYY(23-36) (Ac-S[dP]R[dIva][Cha][Cha]NL[Aib]TRQR[Cha]-NH2; SMILES CC[C@@](C)(NC(=O)[C@H](CCCNC(=N)N)NC(=O)[C@H]1CCCN1C(=O)[C@H](CO)NC(C)=O)C(=O)N[C@@H](CC1CCCCC1)C(=O)N[C@@H](CC1CCCCC1)C(=O)N[C@@H](CC(N)=O)C(=O)N[C@@H](CC(C)C)C(=O)NC(C)(C)C(=O)N[C@H](C(=O)N[C@@H](CCCNC(=N)N)C(=O)N[C@@H](CCC(N)=O)C(=O)N[C@@H](CCCNC(=N)N)C(=O)N[C@@H](CC1CCCCC1)C(N)=O)[C@@H](C)O) [compound No. 181] | 19 | 13
